# Patent US20030186329
# T1: fusion of maltose binding protein, QRGRSA and the HY4 gene product of Arabidopsis thaliana, Q43125
# T1 chain: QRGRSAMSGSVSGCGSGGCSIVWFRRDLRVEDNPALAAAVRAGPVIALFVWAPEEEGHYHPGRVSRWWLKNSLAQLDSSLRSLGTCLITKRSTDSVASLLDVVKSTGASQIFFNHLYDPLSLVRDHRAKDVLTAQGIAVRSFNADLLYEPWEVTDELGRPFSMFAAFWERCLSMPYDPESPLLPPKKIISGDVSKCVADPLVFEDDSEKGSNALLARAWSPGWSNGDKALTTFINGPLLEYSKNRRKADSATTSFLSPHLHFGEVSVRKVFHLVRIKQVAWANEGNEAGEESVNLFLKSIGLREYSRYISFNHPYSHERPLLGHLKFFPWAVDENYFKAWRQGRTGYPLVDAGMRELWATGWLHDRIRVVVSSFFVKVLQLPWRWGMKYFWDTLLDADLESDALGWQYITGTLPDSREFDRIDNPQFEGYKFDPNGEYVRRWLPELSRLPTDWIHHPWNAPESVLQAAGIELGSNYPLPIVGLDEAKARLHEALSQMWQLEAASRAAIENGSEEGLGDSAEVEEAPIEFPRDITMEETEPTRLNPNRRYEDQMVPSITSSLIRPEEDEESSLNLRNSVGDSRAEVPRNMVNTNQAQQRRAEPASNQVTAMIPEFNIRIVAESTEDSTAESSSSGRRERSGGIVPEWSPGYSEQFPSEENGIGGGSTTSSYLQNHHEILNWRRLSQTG
# T2: peptide (I), native cleavage sequence from plasminogen
# T2 chain: KKSPGRVVGGSVAH
# T3: peptide (II) of Table 1, LGGSGQRGRKALE
# T3 chain: LGGSGQRGRKALE
# T4: peptide (III) of Table 1, LGGSGERARGALE
# T4 chain: LGGSGERARGALE
# T5: peptide (IV) of Table 1, LGGSGHYGRSGLE
# T5 chain: LGGSGHYGRSGLE
# T6: peptide (V) of Table 1, YGRS
# T6 chain: YGRS
# T7: peptide (VI) of Table 1, RGRK
# T7 chain: RGRK
# T8: peptide (VII) of Table 1, FRGRK
# T8 chain: FRGRK
# T9: peptide GSGKS
# T9 chain: GSGKS
# T10: peptide LGGRGRSANAILE
# T10 chain: LGGRGRSANAILE
# T11: peptide LGGSGRKASLSLE
# T11 chain: LGGSGRKASLSLE
# T12: peptide LGGSGRNAQVRLE
# T12 chain: LGGSGRNAQVRLE
# T13: peptide LGGSGRSANAILE
# T13 chain: LGGSGRSANAILE
# T14: peptide LGGSGRSATRDLE
# T14 chain: LGGSGRSATRDLE
# T15: peptide LGGYGRSANAILE
# T15 chain: LGGYGRSANAILE
# T16: peptide LGQRGRSANAILE
# T16 chain: LGQRGRSANAILE
# T17: peptide SGKS
# T17 chain: SGKS
# T18: peptide SGRSA
# T18 chain: SGRSA
# T19: peptide SGRS
# T19 chain: SGRS
# B1: tissue plasminogen activator (t-PA) (protein)
# chain: SYQVICRDEKTQMIYQQHQSWLRPVLRSNRVEYCWCNSGRAQCHSVPVKSCSEPRCFNGGTCQQALYFSDFVCQCPEGFAGKCCEIDTRATCYEDQGISYRGTWSTAESGAECTNWNSSALAQKPYSGRRPDAIRLGLGNHNYCRNPDRDSKPWCYVFKAGKYSSEFCSTPACSEGNSDCYFGNGSAYRGTHSLTESGASCLPWNSMILIGKVYTAQNPSAQALGLGKHNYCRNPDGDAKPWCHVLKNRRLTWEYCDVPSCSTCGLRQYSQPQFRIKGGLFADIASHPWQAAIFAKHRRSPGERFLCGGILISSCWILSAAHCFQERFPPHHLTVILGRTYRVVPGEEEQKFEVEKYIVHKEFDDDTYDNDIALLQLKSDSSRCAQESSVVRTVCLPPADLQLPDWTECELSGYGKHEALSPFYSERLKEAHVRLYPSSRCTSQHLLNRTVTDNMLCAGDTRSGGPQANLHDACQGDSGGPLVCLNDGRMTLVGIISWGLGCGQKDVPGVYTKVTNYLDWIRDNMRP
# Key:
# [1] = biological target: T1, fusion of maltose binding protein, …
# [2] = biological target: T2, peptide (I), native cleavage sequence …
# [3] = biological target: T3, peptide (II) of Table 1, LGGSGQRGRKALE
# [4] = biological target: T4, peptide (III) of Table 1, LGGSGERARGALE
# [5] = biological target: T5, peptide (IV) of Table 1, LGGSGHYGRSGLE
# [6] = biological target: T6, peptide (V) of Table 1, YGRS
# [7] = biological target: T7, peptide (VI) of Table 1, RGRK
# [8] = biological target: T8, peptide (VII) of Table 1, FRGRK
# [9] = biological target: T9, peptide GSGKS
# [10] = biological target: T10, peptide LGGRGRSANAILE
# [11] = biological target: T11, peptide LGGSGRKASLSLE
# [12] = biological target: T12, peptide LGGSGRNAQVRLE
# [13] = biological target: T13, peptide LGGSGRSANAILE
# [14] = biological target: T14, peptide LGGSGRSATRDLE
# [15] = biological target: T15, peptide LGGYGRSANAILE
# [16] = biological target: T16, peptide LGQRGRSANAILE
# [17] = biological target: T17, peptide SGKS
# [18] = biological target: T18, peptide SGRSA
# [19] = biological target: T19, peptide SGRS
# [20] = biological target: T2, peptide (I), native cleavage sequence …; assay: kinetics of peptide hydrolysis by the enzyme, HPLC, Eadie-Hofstee
# [21] = biological target: T3, peptide (II) of Table 1, LGGSGQRGRKALE; assay: as above
# [22] = biological target: T4, peptide (III) of Table 1, LGGSGERARGALE; assay: as above
# [23] = biological target: T5, peptide (IV) of Table 1, LGGSGHYGRSGLE; assay: as above
# [24] = biological target: T10, peptide LGGRGRSANAILE; assay: as above
# [25] = biological target: T11, peptide LGGSGRKASLSLE; assay: as above
# [26] = biological target: T12, peptide LGGSGRNAQVRLE; assay: as above
# [27] = biological target: T13, peptide LGGSGRSANAILE; assay: as above
# [28] = biological target: T14, peptide LGGSGRSATRDLE; assay: as above
# [29] = biological target: T15, peptide LGGYGRSANAILE; assay: as above
# [30] = biological target: T16, peptide LGQRGRSANAILE; assay: as above
# [31] = biological target: T6, peptide (V) of Table 1, YGRS; assay: kinetics of peptide hydrolysis by the enzyme, HILIC HPLC, Eadie-Hofstee
# [32] = biological target: T7, peptide (VI) of Table 1, RGRK; assay: as above
# [33] = biological target: T8, peptide (VII) of Table 1, FRGRK; assay: as above
# [34] = biological target: T9, peptide GSGKS; assay: as above
# [35] = biological target: T17, peptide SGKS; assay: as above
# [36] = biological target: T18, peptide SGRSA; assay: as above
# [37] = biological target: T19, peptide SGRS; assay: as above
protein,measurement,setting,value
B1,"cleavage of fusion protein, SDS-PAGE",[1],t-PA readily cleaved the fusion protein
same,kcat,[2],0.0043 s⁻¹
same,kcat/Km,[2],0.29 M⁻¹ s⁻¹
same,kcat,[3],0.99 s⁻¹
same,kcat/Km,[3],430 M⁻¹ s⁻¹
same,kcat,[4],0.073 s⁻¹
same,kcat/Km,[4],52 M⁻¹ s⁻¹
same,kcat,[5],1.29 s⁻¹
same,kcat/Km,[5],322 M⁻¹ s⁻¹
same,kcat,[6],23.7 s⁻¹
same,kcat/Km,[6],3950 M⁻¹ s⁻¹
same,kcat,[7],15.3 s⁻¹
same,kcat/Km,[7],992 M⁻¹ s⁻¹
same,fold more efficient cleavage by t-PA than by u-PA,[8],approximately 74 times more efficiently by t-PA than by u-PA
same,kcat,[8],12.2 s⁻¹
same,kcat/Km,[8],1240 M⁻¹ s⁻¹
same,kcat,[9],0.07 s⁻¹
same,kcat/Km,[9],1.6 M⁻¹ s⁻¹
same,kcat,[10],0.85 s⁻¹
same,kcat/Km,[10],350 M⁻¹ s⁻¹
same,kcat,[11],0.168 s⁻¹
same,kcat/Km,[11],33 M⁻¹ s⁻¹
same,kcat,[12],0.255 s⁻¹
same,kcat/Km,[12],36 M⁻¹ s⁻¹
same,kcat,[13],0.305 s⁻¹
same,kcat/Km,[13],75 M⁻¹ s⁻¹
same,kcat,[14],0.068 s⁻¹
same,kcat/Km,[14],45 M⁻¹ s⁻¹
same,kcat,[15],3.29 s⁻¹
same,kcat/Km,[15],1800 M⁻¹ s⁻¹
same,kcat,[16],2.55 s⁻¹
same,kcat/Km,[16],850 M⁻¹ s⁻¹
same,fold decrease of catalytic efficiency against peptide (VI) SGRS,[17],by a factor of 49 for t-PA
same,kcat,[17],0.19 s⁻¹
same,kcat/Km,[17],6.8 M⁻¹ s⁻¹
same,kcat,[18],2.4 s⁻¹
same,kcat/Km,[18],60 M⁻¹ s⁻¹
same,kcat,[19],5 s⁻¹
same,kcat/Km,[19],330 M⁻¹ s⁻¹
same,Km,[20],15 mM
same,Km,[21],2.3 mM
same,Km,[22],1.41 mM
same,Km,[23],4.01 mM
same,Km,[24],2.4 mM
same,Km,[25],5.1 mM
same,Km,[26],7 mM
same,Km,[27],4.08 mM
same,Km,[28],1.5 mM
same,Km,[29],1.85 mM
same,Km,[30],3 mM
same,Km,[31],6 mM
same,Km,[32],16.6 mM
same,Km,[33],9.8 mM
same,Km,[34],44 mM
same,Km,[35],28 mM
same,Km,[36],40 mM
same,Km,[37],15 mM
